T1: human CD39 expressed on the cell surface (human, UniProt P49961 1-510)
T1 sequence: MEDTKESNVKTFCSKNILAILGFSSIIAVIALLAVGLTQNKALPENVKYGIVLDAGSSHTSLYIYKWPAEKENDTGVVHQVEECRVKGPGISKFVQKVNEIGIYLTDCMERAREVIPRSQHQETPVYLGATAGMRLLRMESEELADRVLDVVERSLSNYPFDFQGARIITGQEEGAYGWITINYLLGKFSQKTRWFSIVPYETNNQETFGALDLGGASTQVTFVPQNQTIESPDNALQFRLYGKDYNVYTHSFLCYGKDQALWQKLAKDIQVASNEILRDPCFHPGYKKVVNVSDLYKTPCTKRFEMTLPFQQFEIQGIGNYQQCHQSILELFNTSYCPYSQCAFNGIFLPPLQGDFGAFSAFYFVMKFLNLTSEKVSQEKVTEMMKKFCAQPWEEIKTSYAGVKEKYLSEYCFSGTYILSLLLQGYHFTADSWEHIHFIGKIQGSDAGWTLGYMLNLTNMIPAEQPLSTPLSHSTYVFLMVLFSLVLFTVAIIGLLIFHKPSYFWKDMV

T2: murine CD39 expressed on HEK-293 cells (murine, UniProt P55772 1-510)
T2 construct: also called mouse CD39
T2 sequence: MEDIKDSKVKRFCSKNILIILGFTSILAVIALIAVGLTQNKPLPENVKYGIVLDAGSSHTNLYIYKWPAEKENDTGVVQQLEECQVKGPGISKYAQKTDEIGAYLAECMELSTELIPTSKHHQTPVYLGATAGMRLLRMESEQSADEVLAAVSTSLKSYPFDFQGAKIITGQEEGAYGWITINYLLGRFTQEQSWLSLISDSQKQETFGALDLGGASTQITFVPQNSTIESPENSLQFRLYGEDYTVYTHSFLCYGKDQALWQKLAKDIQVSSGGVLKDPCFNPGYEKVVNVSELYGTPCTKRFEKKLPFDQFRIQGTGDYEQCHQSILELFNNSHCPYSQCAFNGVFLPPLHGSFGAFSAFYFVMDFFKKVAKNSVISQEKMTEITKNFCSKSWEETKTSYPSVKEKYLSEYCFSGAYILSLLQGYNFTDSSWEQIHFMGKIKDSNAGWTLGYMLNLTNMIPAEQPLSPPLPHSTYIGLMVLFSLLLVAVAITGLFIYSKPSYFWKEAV

T3: recombinant human CD39 (soluble) (human, UniProt P49961 38-478, limits assumed)
T3 sequence (looked up): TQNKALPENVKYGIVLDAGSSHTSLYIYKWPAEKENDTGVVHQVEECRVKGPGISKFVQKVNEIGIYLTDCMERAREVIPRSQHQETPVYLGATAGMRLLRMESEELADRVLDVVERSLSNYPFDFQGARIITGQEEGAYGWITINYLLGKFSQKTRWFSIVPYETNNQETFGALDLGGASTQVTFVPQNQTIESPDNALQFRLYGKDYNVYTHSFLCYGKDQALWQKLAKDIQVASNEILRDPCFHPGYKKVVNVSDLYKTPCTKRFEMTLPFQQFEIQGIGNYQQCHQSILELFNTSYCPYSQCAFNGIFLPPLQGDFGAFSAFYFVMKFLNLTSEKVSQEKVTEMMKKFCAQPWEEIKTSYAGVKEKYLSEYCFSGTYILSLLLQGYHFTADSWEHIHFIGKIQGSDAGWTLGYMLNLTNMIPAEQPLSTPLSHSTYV

T4: soluble His-tagged human CD39 ECD protein (human, UniProt P49961 38-478)
T4 construct: also called human CD39 ECD His-tagged antigen; Sino Biological Cat. No. 16020-H08B
T4 sequence: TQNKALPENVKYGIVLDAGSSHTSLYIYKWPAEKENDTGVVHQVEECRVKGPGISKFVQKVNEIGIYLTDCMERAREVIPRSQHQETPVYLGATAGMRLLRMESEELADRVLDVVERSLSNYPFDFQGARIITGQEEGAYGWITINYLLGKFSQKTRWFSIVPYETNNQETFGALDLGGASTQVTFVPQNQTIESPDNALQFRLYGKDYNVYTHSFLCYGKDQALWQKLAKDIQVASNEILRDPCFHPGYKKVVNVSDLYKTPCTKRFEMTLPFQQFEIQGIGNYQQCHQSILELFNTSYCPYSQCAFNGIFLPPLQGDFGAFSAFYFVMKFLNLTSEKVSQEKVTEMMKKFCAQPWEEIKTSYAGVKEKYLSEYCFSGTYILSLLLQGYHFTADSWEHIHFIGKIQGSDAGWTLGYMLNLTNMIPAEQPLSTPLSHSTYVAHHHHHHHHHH

T5: cynomolgus monkey CD39 expressed on HEK-293 cells (cynomolgus monkey, UniProt P49961 5-510 (human entry))
T5 construct: also called Cynomolgus Monkey CD39-HEK293
T5 chain: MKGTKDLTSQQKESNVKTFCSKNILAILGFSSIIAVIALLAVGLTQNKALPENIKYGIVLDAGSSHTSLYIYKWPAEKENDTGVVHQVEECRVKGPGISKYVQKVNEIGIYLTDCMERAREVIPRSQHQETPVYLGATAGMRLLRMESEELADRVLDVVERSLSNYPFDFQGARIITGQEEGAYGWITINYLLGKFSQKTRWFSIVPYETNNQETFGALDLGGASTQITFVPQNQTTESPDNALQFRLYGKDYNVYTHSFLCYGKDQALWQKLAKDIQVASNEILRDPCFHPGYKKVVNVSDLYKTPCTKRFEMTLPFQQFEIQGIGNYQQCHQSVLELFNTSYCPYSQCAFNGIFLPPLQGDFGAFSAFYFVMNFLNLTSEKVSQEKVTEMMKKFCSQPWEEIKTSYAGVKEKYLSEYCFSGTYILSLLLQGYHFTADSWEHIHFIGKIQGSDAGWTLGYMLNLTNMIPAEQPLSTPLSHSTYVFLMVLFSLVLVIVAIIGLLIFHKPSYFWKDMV


What was measured:
[1] = biological target: T1, human CD39 expressed on the cell surface; assay: cell-based or functional assay
[2] = biological target: T2, murine CD39 expressed on HEK-293 cells; assay: FACS on HEK-293 cells overexpressing murine CD39 (method of Example 1)
[3] = biological target: T3, recombinant human CD39 (soluble); assay: cell-based or functional assay
[4] = biological target: T4, soluble His-tagged human CD39 ECD …; assay: SPR (Biacore 8K), antibody captured via anti-human Fc, CD39 ECD analyte
[5] = biological target: T1, human CD39 expressed on the cell surface; assay: flow cytometry on purified human CD14+ monocytes, 0 uM ATP
[6] = biological target: T1, human CD39 expressed on the cell surface; assay: cell-based or functional assay; remark: listed apart in the source
[7] = biological target: T1, human CD39 expressed on the cell surface; assay: flow cytometry on purified human CD14+ monocytes, 400 uM ATP
[8] = biological target: T1, human CD39 expressed on the cell surface; assay: cell-based or functional assay; remark: listed apart in the source
[9] = biological target: T1, human CD39 expressed on the cell surface; assay: FACS on CHO-K1 cells overexpressing human CD39
[10] = biological target: T5, cynomolgus monkey CD39 expressed on …; assay: FACS on HEK293 cells overexpressing cynomolgus CD39
[11] = biological target: T4, soluble His-tagged human CD39 ECD …; assay: SPR (Biacore 8K), antibody captured via anti-human Fc, CD39 ECD analyte, 25 C
[12] = biological target: T1, human CD39 expressed on the cell surface; assay: flow cytometry on human PBMCs gated on CD14+ monocytes, 400 uM ATP (N = 6)
[13] = biological target: T1, human CD39 expressed on the cell surface; assay: cell-based or functional assay; remark: listed apart in the source
[14] = biological target: T1, human CD39 expressed on the cell surface; assay: flow cytometry on human PBMCs gated on CD14+ monocytes, 0 uM ATP (N = 8)
[15] = biological target: T1, human CD39 expressed on the cell surface; assay: flow cytometry on human PBMCs gated on CD19+ B cells, one donor, 400 µM ATP
[16] = biological target: T1, human CD39 expressed on the cell surface; assay: flow cytometry on human PBMCs gated on CD19+ B cells, one donor, 0 µM ATP
[17] = biological target: T1, human CD39 expressed on the cell surface; assay: flow cytometry on human PBMCs gated on CD19+ B cells, 0 uM ATP (N = 8)
[18] = biological target: T1, human CD39 expressed on the cell surface; assay: flow cytometry on human PBMCs gated on CD19+ B cells, 400 uM ATP (N = 6)
[19] = biological target: T1, human CD39 expressed on the cell surface; assay: cell-based or functional assay; remark: listed apart in the source
[20] = biological target: T1, human CD39 expressed on the cell surface; assay: flow cytometry on whole blood of C57BL/6 hCD39KI MC38 mice treated in vivo with isotype control, with saline or oxaliplatin; signal over the IgG1.FcS-AF647 isotype control (bottom row of panels)
[21] = biological target: T4, soluble His-tagged human CD39 ECD …; assay: SPR (Biacore 8K), antibody captured via anti-human Fc, CD39 ECD analyte; remark: listed apart in the source

| Binder | Human THP-1 CD39 inhibition IC50 [1] [nM] | binding result [2] | IC50, inhibition of recombinant CD39 enzymatic activity, 20 uM ATP [3] [nM] | Max Inhibition (%), recombinant CD39, 20 uM ATP [3] [%] | EC50 [5] [nM] | IC50, CD39 enzymatic inhibition on THP-1 cells, 20 uM ATP [6] [nM] | Max Inhibition (%), THP-1 cells [6] [%] | EC50 [7] [nM] | IC50, CD39 enzymatic inhibition on SK-MEL-5 cells, 20 uM ATP [8] [nM] | Max Inhibition (%), SK-MEL-5 cells [8] [%] | EC50 [9] [nM] | EC50 [10] [nM] | Kd [11] [nM] | koff [11] [s⁻¹] | kon [11] [M⁻¹ s⁻¹] | further results |
| --- | --- | --- | --- | --- | --- | --- | --- | --- | --- | --- | --- | --- | --- | --- | --- | --- |
| ch39_IGG4.P (antibody, human IgG4 S228P, kappa, rat/human chimera of antibody 39, human IgG4 (S228P), kappa) heavy: not shown light: DTVLTQSPALAVSPGERVSISCRASEGVKSYMHWYQQKPGQQPKLLIYKASNLASGVPARFSGSGSGTDFTLTIDPVEADDTATYFCQQSWNDPTFGAGTKLELKRTVAAPSVFIFPPSDEQLKSGTASVVCLLNNFYPREAKVQWKVDNALQSGNSQESVTEQDSKDSTYSLSSTLTLSKADYEKHKVYACEVTHQGLSSPVTKSFNRGEC | 0.042 | no binding | 2.3 | 100 | 0.69 | 0.11 | 67 | 1.3 | 0.56 | 63 | 0.79 | 0.32 | 0.214 | 7.45e-05 | 348000 | Kd [4]: 0.336 nM; koff [4]: 9.4e-05 s⁻¹; kon [4]: 280000 M⁻¹ s⁻¹ |
| huBMK2_IGG1.AEASS (antibody, human IgG1, kappa, V domains shown, also called previously described anti-CD39 antibody (comparator)) VH: QVQLVQSGAEVKKPGASVKVSCKASGYTFTDYNMHWVRQAPGQRLEWIGYIVPLNGGSTFNQKFKGRATITVDTSARTAYMELSSLRSEDTAVYYCARGGTRFAYWGQGTLVTVSS VL: DIVMTQSPDSLAVSLGERATINCRASESVDNFGVSFMYWFQQKPGQPPKLLIYGASNQGSGVPDRFSGSGSGTDFTLTISSLQAEDVAVYYCQQTKEVPYTFGGGTKVEIKR | – | – | – | – | – | – | – | – | – | – | – | – | – | – | – | EC50 [12]: 1 nM; IC50, CD39 enzymatic inhibition on human monocytes, 400 uM ATP [13]: 1.4 nM; Max Inhibition (%), human monocytes, 400 uM ATP [13]: 62%; EC50 [14]: 1 nM; EC50 (read off the curve) [15]: ~0.8 nM; EC50 (read off the curve) [16]: ~0.7 nM; EC50 [17]: 0.9 nM; EC50 [18]: 0.8 nM; IC50, CD39 enzymatic inhibition on human monocytes, 20 uM ATP [19]: 2.7 nM; Max Inhibition (%), human monocytes, 20 uM ATP [19]: 74% |
| hu39.5_IGG1.AA-AF647 (antibody, human IgG1, kappa, L234A L235A, antibody conjugated to AF647 (Lightning Link kit; residues not stated)) heavy: not shown light: DTVLTQSPASLAVSPGQRATITCRASEGVKSYMHWYQQKPGQPPKLLIYKASNLASGVPARFSGSGSGTDFTLTINPVEADDTANYYCQQSWNDPTFGQGTKLEIKRTVAAPSVFIFPPSDEQLKSGTASVVCLLNNFYPREAKVQWKVDNALQSGNSQESVTEQDSKDSTYSLSSTLTLSKADYEKHKVYACEVTHQGLSSPVTKSFNRGEC | – | – | – | – | – | – | – | – | – | – | – | – | – | – | – | binding result [20]: binds |
| ch31_IGG4.P (antibody, human IgG4 S228P, kappa, V domains shown, rat/human chimera of antibody 31, human IgG4 (S228P), kappa) VH: EVHLQQSGAALVRPGTSVKLPCKVSGDSITAYFMHFVRQRPGQGLEWMGRIDPDHERTKYAEKFKNRASLTSETSSNTVFLQLTSLTSEDTATYFCTTERVPGFETDYWGQGVMVTVSS VL: DIVLTQSPTLAVSLGQRATISCRTNQTVDHYGTTYMNWYQQKPGQQPKLLIYLASSLASGIPARFSGRGSGTDFTLTIDPVEADDTATYYCQQSRNLWTFGGGTKLELKR | 0.09 | no binding | 1.3 | 100 | 27 | 0.14 | 86 | 28 | 2.4 | 63 | 4.44 | 2.55 | 0.113 | 0.000125 | 1.1e+06 | Kd [21]: 0.129 nM; koff [21]: 0.00015 s⁻¹; kon [21]: 1.16e+06 M⁻¹ s⁻¹ |

From US20250084178A1 (ARCUS BIOSCIENCES, published 2025)
